{"source": "patent US12410253B2", "about": "“Compositions comprising anti-NRP2 antibodies” (aTyr Pharma, Inc., priority 2019, dated 2025)", "molecules": {"B1": {"name": "aNRP2-10v10: humanized, affinity matured anti-NRP2 antibody, target domain b1, VEGF-C blocking; VH SEQ ID NO: 49, VL SEQ ID NO: 50 (antibody, V domains shown)", "VH": "EVQLVQSGAEVKKPGATVKISCKVSGFNIKDYYVHWVQQAPGKGLEWMGRIDVEDDETKYAPKFQGRVTITADTSTDTAYMELSSLRSEDTAVYYCATPIYGAREAWFAYWGQGTLVTVSS", "VL": "DIQMTQSPSSLSASVGDRVTITCTASSSVSSSYLHWYQQKPGKAPKLLIYRTSNLASGVPSRFSGSGSGTDFTLTISSLQPEDFATYYCHQYYRSPPTFGGGTKVEIK", "modifications": "Variable heavy chain region; Light chain variable region"}}, "key": {"mouse NRP2 [1]": {"molecular_target": "T1, mouse NRP2 (Mus musculus, UniProt O35375)", "T1 construct": "host or cells: Expi293, transient transfection", "T1 sequence (O35375 21-926 isoform O35375-4)": "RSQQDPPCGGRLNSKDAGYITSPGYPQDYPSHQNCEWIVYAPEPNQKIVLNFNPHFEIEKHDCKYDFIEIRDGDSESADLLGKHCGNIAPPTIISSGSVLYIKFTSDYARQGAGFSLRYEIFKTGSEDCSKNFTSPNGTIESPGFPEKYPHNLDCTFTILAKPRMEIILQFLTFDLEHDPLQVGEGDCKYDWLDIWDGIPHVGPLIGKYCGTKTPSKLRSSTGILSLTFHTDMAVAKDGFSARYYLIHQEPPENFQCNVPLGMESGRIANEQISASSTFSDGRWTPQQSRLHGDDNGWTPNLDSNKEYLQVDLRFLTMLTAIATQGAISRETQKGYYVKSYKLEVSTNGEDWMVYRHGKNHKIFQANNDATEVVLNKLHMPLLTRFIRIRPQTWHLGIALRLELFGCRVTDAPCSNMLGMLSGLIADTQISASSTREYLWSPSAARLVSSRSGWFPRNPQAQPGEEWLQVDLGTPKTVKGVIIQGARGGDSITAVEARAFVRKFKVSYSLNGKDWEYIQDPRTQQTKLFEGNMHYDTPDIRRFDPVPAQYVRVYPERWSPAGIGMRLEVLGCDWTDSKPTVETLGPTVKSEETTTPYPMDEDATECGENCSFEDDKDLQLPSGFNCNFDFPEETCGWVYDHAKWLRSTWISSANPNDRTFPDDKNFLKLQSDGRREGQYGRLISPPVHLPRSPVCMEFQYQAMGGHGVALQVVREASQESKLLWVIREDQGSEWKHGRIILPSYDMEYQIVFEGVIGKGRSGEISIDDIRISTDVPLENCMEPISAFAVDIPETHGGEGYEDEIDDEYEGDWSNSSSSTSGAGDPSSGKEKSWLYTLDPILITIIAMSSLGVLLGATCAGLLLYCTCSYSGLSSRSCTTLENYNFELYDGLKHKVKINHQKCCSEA", "experiment": "Epitope mapping: FACS staining of Expi293 cells expressing mouse NRP2 and b1 domain mutants", "type": "binding", "protocol": "(§1) Human NRP2a (version 2; see Table N1) and mouse NRP2v2 cDNAs were obtained from Origene. […] Human and mouse NRP2, expression vectors, along with expression vectors encoding all 6 mutants were transfected into Expi293 cells at 1 million cells/mL, by standard techniques. Approximately 40 hours post transfection cells were co-stained with aNRP2-10v10, and a species agnostic anti-NRP2 a1 specific binding antibody."}, "mouse NRP2 [2]": {"tested_on": "mouse NRP2", "experiment": "Epitope mapping: FACS staining of Expi293 cells expressing mouse NRP2 and b1 domain mutants", "type": "binding", "settings": "MFI staining, antibody 10 nM, mutations made in isolation", "protocol": "as §1"}, "A549 cells": {"tested_on": "A549 cells", "experiment": "A549 NSCLC xenograft in Nu/J mice, combination with 5-FU", "type": "in vivo", "settings": "for tumor growth in combination with 5-FU: 12.5 mg/kg IP BIW plus 5-FU 2.5 mg/kg TIW from day 16, significant on day 51 vs control IgG/5-FU", "protocol": "This study aimed to investigate the in vivo anticancer potential of aNRP2-10v10 in combination with fluorouracil (5-FU) in a human xenograft mouse model using A549 cells (NSCLC cancer model).\nTreatment Regimen. Twenty (20) Nu/J mice (Jackson Laboratory, female, 6-8 wks old) were used in this study. […] The dosing regimen is shown in Table E7 below; In brief animals received injections of 12.5 mg/kg of aNRP2-10 or IgG control, which were administered to mice intraperitoneally twice a week according to the protocol below (Table E7). Both groups also received 2.5 mg/kg of 5-FU three times a week.\nHuman A549 cell line was purchased from ATCC."}, "MDA-MB-231 cells": {"tested_on": "MDA-MB-231 cells", "experiment": "3D methylcellulose colony formation assay, MDA-MB-231", "type": "cell-based, human", "settings": "antibody 100 nM in combination with Cisplatin (2 doses) or Bevacizumab (100 nM), compared to hIgG4", "text": "Other experimental details are essentially the same as described in the previous example."}, "MDA-MB-231": {"tested_on": "MDA-MB-231", "experiment": "3D soft agar colony formation assay, MDA-MB-231", "type": "cell-based, human", "protocol": "Anchorage-independent growth is the ability of transformed cells to grow independently of a solid surface, and is a hallmark of carcinogenesis. The soft agar colony formation assay is a well-established method for characterizing this capability in vitro (J Vis Exp. 2014; (92): 51998). Human triple negative breast cancer (TNBC) cell lines MDA-MB-231 (HTB-26™) and BT549 (HTB122™) were obtained from ATCC and employed in this assay.\nMDA-MB-231 was cultured in 1×RPMI media containing 10% FBS and 1% P/S. BT549 was cultured in 1×RPMI media containing 10% FBS, 0.023 U/mL insulin and 1% P/S. Cells were recovered and expanded from frozen stocks for 2-3 passages. The NRP2-high population was sorted out on FACS equipment following cell surface staining by a fluorophore-conjugated anti-NRP2 antibody. […] The chemo drug Cisplatin or 5-FU was added at a final concentration of IC30 or 1/2 IC30, based on a preliminary test that determined their inhibition curves on MDA-MB-231 cells, in combination with the antibodies a-NRP2-10v10 or its isotype control hIgG4 at 100 nM. […] After 6 or 9 days of treatment, the soft agar matrix was dissolved and the formed cell colonies were quantified using CyQuant dye diluted in PBS (provided in the Cell Biolab kit), which produced a fluorescence signal proportional to viable cells."}}, "note": "“Also recorded” adds a separate entry of the source."}
{"molecule": "B1", "values": [{"measurement": "binding to mouse NRP2 (wild type)", "setting": "mouse NRP2 [1]", "result": "binds specifically to the b1 domain of human NRP2, but not mouse NRP2; also recorded: does not cross react with mouse NRP2"}, {"measurement": "binding activity to mouse NRP2 with mutations F299Y, K354N, and L416S", "setting": "mouse NRP2 [2]", "result": "restored partial, but incomplete, binding activity"}, {"measurement": "binding to mouse NRP2 with mutations 1383V, M400A, and 1407V", "setting": "mouse NRP2 [2]", "result": "no improvement in binding"}, {"measurement": "tumor growth in combination with 5-FU", "setting": "A549 cells", "result": "enhances activity of the chemotherapeutic drug 5-FU"}, {"measurement": "tumor growth in combination with 5-FU", "setting": "A549 cells; listed as aNRP2-10", "result": "performed better than 5-FU with control IgG"}, {"measurement": "toxicity by clinical observations and body weights", "setting": "A549 cells; combination with 5-FU", "result": "No obvious increased toxicity"}, {"measurement": "colony formation by MDA-MB-231 cells, methylcellulose", "setting": "MDA-MB-231 cells", "result": "inhibitory effect; also recorded: significantly enhanced inhibition of colony formation"}, {"measurement": "colony formation, soft agar, antibody treatment alone (MDA-MB-231)", "setting": "MDA-MB-231; aNRP2-10v10 treatment alone", "result": "no obvious effect"}, {"measurement": "colony formation by MDA-MB-231 cells, soft agar", "setting": "MDA-MB-231; antibody 100 nM in combination with Cisplatin or 5-FU (IC30 or 1/2 IC30), compared to hIgG4 control, NRP2-high sorted cells", "result": "significantly more pronounced; also recorded: significant inhibition of colony formation"}]}
